This is an account of results in paper PMC12403130, “A β-cap on the FliPQR protein-export channel acts as the cap for initial flagellar rod assembly” (Proceedings of the National Academy of Sciences of the …, 2025).

The data set deals with the molecule itself. The experiment in a line: cryo-EM structure; FliP, FliQ and FliR-His co-expressed in Salmonella SJW1368, complex solubilised with LMNG, purified and reconstituted in a peptidisc; single-particle analysis, C1 symmetry, 3.0 Å, closed form.

B1: FliP (natural protein)
chain: QLPGLISQPLAGGGQSWSLSVQTLVFITSLTFLPAILLMMTSFTRIIIVFGLLRNALGTPSAPPNQVLLGLALFLTFFIMSPVIDKIYVDAYQPFSEQKISMQEALDKGAQPLRAFMLRQTREADLALFARLANSGPLQGPEAVPMRILLPAYVTSELKTAFQIGFTIFIPFLIIDLVIASVLMALGMMMVPPATIALPFKLMLFVLVDGWQLLMGSLAQSFYS
notes: FliP, Salmonella enterica serovar Typhimurium; signal peptide (residues 1 to 21) cleaved between Ala-21 and Gln-22 during membrane insertion; the mature protein begins at Gln-22; Five copies of FliP stand in the FliP5-FliQ4-FliR1 complex; also called mature FliP; FliP^1; source: membranes solubilised with 1% LMNG; reconstituted in a peptidisc
As for B1, the stoichiometry N – broadly, a count of units in the complex or per binding partner – was found to be 5.
